Source: patent US20230074436A1 (DENALI THERAPEUTICS, published 2023)
No end group written: not given here. *: point of attachment. Biotin = O=C1N[C@H]2[C@H](CS[C@H]2CCCCC(=O)*)N1

What was measured:
asyn_113-127_115A [1] = molecular target: T1, asyn_113-127_115A (human); assay: Ala-scan peptide ELISA, row A, run 2; further: test concentration or dose not given here
T1 construct: substitution is already in the entry; also called pep4
T1 peptide: Biotin-LEAMPVDPDNEAYEM

asyn_113-127_118A [2] = molecular target: T2, asyn_113-127_118A (human); assay: Ala-scan peptide ELISA, row A, run 2; further: test concentration or dose not given here
T2 construct: substitution is already in the entry; also called pep7
T2 peptide: Biotin-LEDMPADPDNEAYEM

asyn_113-127 [3] = molecular target: T3, asyn_113-127 (human); assay: Ala-scan peptide ELISA, row B, run 2
T3 construct: also called pep1
T3 peptide: Biotin-LEDMPVDPDNEAYEM
Protocol: (§1) 96-well Nunc plates were coated with 50 μL per well of 1 μg/mL streptavidin (from Jackson Immuno Research Laboratory) in PBS at 4° C. overnight. The plates were washed three times with PBST, and blocked with PBS containing 3% BSA at room temperature for 1 hour. The N-terminal biotinylated peptides were dissolved in Milli Q water to a concentration of 2 mg/mL, then further diluted to a concentration of 2 μg/mL with PBS. 50 μl of the diluted peptide was applied to the streptavidin-coated plates and incubated at 4° C. overnight. 2 μg/mL of biotinylated human alpha-synuclein was used as the positive control. The plates were washed three times with PBST before use. Purified antibody was diluted by serial dilution methods, from 20 μg/mL to 1 ng/mL, and 50 μL of the antibody solution was added to the peptide-coated wells. The plates were incubated for 1 hour at room temperature, then washed three times with PBST. Secondary detection antibody (goat anti-rat HRP (obtained from Southern Biotech)) was added with 1:5,000 dilutions and incubated for 1 hour at room temperature, then washed three times with PBST. Plates were developed with 50 μL/well of TMB substrate (Thermo Fisher) and quenched with 50 μL/well of 1 N sulfuric acid. The signal was quantified on a BioTek® plate reader at A450. A parallel repeat was performed for each peptide in a separate plate.

asyn_113-127_113A [4] = molecular target: T4, asyn_113-127_113A (human); assay: Ala-scan peptide ELISA, row B, run 2
T4 construct: substitution is already in the entry; also called pep2
T4 peptide: Biotin-AEDMPVDPDNEAYEM
Protocol: as §1

asyn_113-127_114A [5] = molecular target: T5, asyn_113-127_114A (human); assay: Ala-scan peptide ELISA, row B, run 2
T5 construct: substitution is already in the entry; also called pep3
T5 peptide: Biotin-LADMPVDPDNEAYEM
Protocol: as §1

asyn_113-127_115A [6] = molecular target: T1, asyn_113-127_115A; assay: Ala-scan peptide ELISA, row B, run 2
Protocol: as §1

asyn_113-127_116A [7] = molecular target: T6, asyn_113-127_116A (human); assay: Ala-scan peptide ELISA, row B, run 2
T6 construct: substitution is already in the entry; also called pep5
T6 peptide: Biotin-LEDAPVDPDNEAYEM
Protocol: as §1

asyn_113-127_117A [8] = molecular target: T7, asyn_113-127_117A (human); assay: Ala-scan peptide ELISA, row B, run 2
T7 construct: substitution is already in the entry; also called pep6
T7 peptide: Biotin-LEDMAVDPDNEAYEM
Protocol: as §1

asyn_113-127_118A [9] = molecular target: T2, asyn_113-127_118A; assay: Ala-scan peptide ELISA, row B, run 2
Protocol: as §1

asyn_113-127_119A [10] = molecular target: T8, asyn_113-127_119A (human); assay: Ala-scan peptide ELISA, row B, run 2
T8 construct: substitution is already in the entry; also called pep8
T8 peptide: Biotin-LEDMPVAPDNEAYEM
Protocol: as §1

asyn_113-127_120A [11] = molecular target: T9, asyn_113-127_120A (human); assay: Ala-scan peptide ELISA, row B, run 2
T9 construct: substitution is already in the entry; also called pep9
T9 peptide: Biotin-LEDMPVDADNEAYEM
Protocol: as §1

asyn_113-127_121A [12] = molecular target: T10, asyn_113-127_121A (human); assay: Ala-scan peptide ELISA, row B, run 2
T10 construct: substitution is already in the entry; also called pep10
T10 peptide: Biotin-LEDMPVDPANEAYEM
Protocol: as §1

asyn_113-127_122A [13] = molecular target: T11, asyn_113-127_122A (human); assay: Ala-scan peptide ELISA, row B, run 2
T11 construct: substitution is already in the entry; also called pep11
T11 peptide: Biotin-LEDMPVDPDAEAYEM
Protocol: as §1

asyn_113-127_123A [14] = molecular target: T12, asyn_113-127_123A (human); assay: Ala-scan peptide ELISA, row B, run 2
T12 construct: substitution is already in the entry; also called pep12
T12 peptide: Biotin-LEDMPVDPDNAAYEM
Protocol: as §1

asyn_113-127_124G [15] = molecular target: T13, asyn_113-127_124G (human); assay: Ala-scan peptide ELISA, row B, run 2
T13 construct: substitution is already in the entry; also called pep13
T13 peptide: Biotin-LEDMPVDPDNEGYEM
Protocol: as §1

asyn_113-127_124P [16] = molecular target: T14, asyn_113-127_124P (human); assay: Ala-scan peptide ELISA, row B, run 2
T14 construct: substitution is already in the entry; also called pep14
T14 peptide: Biotin-LEDMPVDPDNEPYEM
Protocol: as §1

asyn_113-127_125A [17] = molecular target: T15, asyn_113-127_125A (human); assay: Ala-scan peptide ELISA, row B, run 2
T15 construct: substitution is already in the entry; also called pep15
T15 peptide: Biotin-LEDMPVDPDNEAAEM
Protocol: as §1

asyn_113-127_126A = molecular target: T16, asyn_113-127_126A (human); assay: Ala-scan peptide ELISA, row B, run 2
T16 construct: substitution is already in the entry; also called pep16
T16 peptide: Biotin-LEDMPVDPDNEAYAM
Protocol: as §1

asyn_113-127_127A [18] = molecular target: T17, asyn_113-127_127A (human); assay: Ala-scan peptide ELISA, row B, run 2
T17 construct: substitution is already in the entry; also called pep17
T17 peptide: Biotin-LEDMPVDPDNEAYEA
Protocol: as §1

[19] = molecular target: T18, biotinylated human alpha-synuclein (human, UniProt P37840 1-140); assay: Ala-scan peptide ELISA, row B, run 2
Protocol: as §1

asyn_113-127 [20] = molecular target: T3, asyn_113-127; assay: Ala-scan peptide ELISA, row C, run 2
Protocol: as §1

asyn_113-127_113A [21] = molecular target: T4, asyn_113-127_113A; assay: Ala-scan peptide ELISA, row C, run 2
Protocol: as §1

asyn_113-127_114A [22] = molecular target: T5, asyn_113-127_114A; assay: Ala-scan peptide ELISA, row C, run 2
Protocol: as §1

asyn_113-127_115A [23] = molecular target: T1, asyn_113-127_115A; assay: Ala-scan peptide ELISA, row C, run 2
Protocol: as §1

asyn_113-127_116A [24] = molecular target: T6, asyn_113-127_116A; assay: Ala-scan peptide ELISA, row C, run 2
Protocol: as §1

asyn_113-127_117A [25] = molecular target: T7, asyn_113-127_117A; assay: Ala-scan peptide ELISA, row C, run 2
Protocol: as §1

asyn_113-127_119A [26] = molecular target: T8, asyn_113-127_119A; assay: Ala-scan peptide ELISA, row C, run 2
Protocol: as §1

asyn_113-127_120A [27] = molecular target: T9, asyn_113-127_120A; assay: Ala-scan peptide ELISA, row C, run 2
Protocol: as §1

asyn_113-127_121A [28] = molecular target: T10, asyn_113-127_121A; assay: Ala-scan peptide ELISA, row C, run 2
Protocol: as §1

asyn_113-127_122A [29] = molecular target: T11, asyn_113-127_122A; assay: Ala-scan peptide ELISA, row C, run 2
Protocol: as §1

asyn_113-127_123A [30] = molecular target: T12, asyn_113-127_123A; assay: Ala-scan peptide ELISA, row C, run 2
Protocol: as §1

asyn_113-127_124G [31] = molecular target: T13, asyn_113-127_124G; assay: Ala-scan peptide ELISA, row C, run 2
Protocol: as §1

asyn_113-127_124P [32] = molecular target: T14, asyn_113-127_124P; assay: Ala-scan peptide ELISA, row C, run 2
Protocol: as §1

asyn_113-127_125A [33] = molecular target: T15, asyn_113-127_125A; assay: Ala-scan peptide ELISA, row C, run 2
Protocol: as §1

asyn_113-127_127A [34] = molecular target: T17, asyn_113-127_127A; assay: Ala-scan peptide ELISA, row C, run 2
Protocol: as §1

[35] = molecular target: T18, biotinylated human alpha-synuclein; assay: Ala-scan peptide ELISA, row C, run 2
Protocol: as §1

B1: 20H4 (antibody, rat IgG2b, V domains shown)
VH: AVQLVESGGGLVQPKESLKISCAASGFTFSNAAMYWVRQAPGKGLELLARIRTKPNNYATYHADSVKGRFTISRDDSQSMVYLHMGNLKTEDTAMYYCTADMATGDYWGPGVMVTVSS
VL: DIQMTQSPPVLSVSVGDRVTLSCKASQNINKNLDWYQQKHGEAPKPLIYSTNNLQTGVPSRFSGSGSGTDYTLTISSLQPEDVATYYCYQYKSAWTFGGGTKLELR
notes: also called clone 20H4; rat 20H4
Q: Which results are given for B1?
A: A450 (asyn_113-127_115A [1]): 0.405 OD; A450 (asyn_113-127_118A [2]): 0.441 OD; A450 (asyn_113-127 [3]): 0.394 OD; A450 (asyn_113-127_113A [4]): 0.407 OD; A450 (asyn_113-127_114A [5]): 0.387 OD; A450 (asyn_113-127_115A [6]): 0.387 OD; A450 (asyn_113-127_116A [7]): 0.433 OD; A450 (asyn_113-127_117A [8]): 0.459 OD; A450 (asyn_113-127_118A [9]): 0.382 OD; A450 (asyn_113-127_119A [10]): 0.056 OD; A450 (asyn_113-127_120A [11]): 0.24 OD; A450 (asyn_113-127_121A [12]): 0.317 OD; A450 (asyn_113-127_122A [13]): 0.06 OD; A450 (asyn_113-127_123A [14]): 0.378 OD; A450 (asyn_113-127_124G [15]): 0.326 OD; A450 (asyn_113-127_124P [16]): 0.058 OD; A450 (asyn_113-127_125A [17]): 0.057 OD; A450 (asyn_113-127_126A): 0.392 OD; A450 (asyn_113-127_127A [18]): 0.429 OD; A450 [19]: 0.931 OD; A450 (asyn_113-127 [20]): 0.307 OD; A450 (asyn_113-127_113A [21]): 0.377 OD; A450 (asyn_113-127_114A [22]): 0.367 OD; A450 (asyn_113-127_115A [23]): 0.306 OD; A450 (asyn_113-127_116A [24]): 0.393 OD; A450 (asyn_113-127_117A [25]): 0.441 OD; A450 (asyn_113-127_119A [26]): 0.046 OD; A450 (asyn_113-127_120A [27]): 0.223 OD; A450 (asyn_113-127_121A [28]): 0.281 OD; A450 (asyn_113-127_122A [29]): 0.051 OD; A450 (asyn_113-127_123A [30]): 0.377 OD; A450 (asyn_113-127_124G [31]): 0.295 OD; A450 (asyn_113-127_124P [32]): 0.055 OD; A450 (asyn_113-127_125A [33]): 0.052 OD; A450 (asyn_113-127_127A [34]): 0.443 OD; A450 [35]: 0.976 OD
